84 variants from the RNAGym collection of RNA variant scans (doi:10.1073/pnas.2313332121) can be followed below.

First the molecules themselves.
B1: TPR t1 (parent)
chain: GACCAAUCUGCCCUCAGAGCUCGAGAACAUCUUCGGAUGCAGAGGAGGCAGGCUUCGGUGGCGCGAUAGCGCCAACGUCCUCAACCUCCAAUGCAUCCCACCACAUGAUGAUGCCUGAAGAGCCUUGGUUUUUUG

In the data set the parent is B1. Kind of data set: polymerase ribozyme fitness, log enrichment relative to wild type (log ratio); higher = more active; in vitro selection for triplet polymerase activity. In short, it runs like this: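 After PCR construction and transcription, each subunit's mutant library from a heterodimeric triplet polymerase ribozyme was annealed with a biotinylated primer, the partner subunit and triplets. Incubation was frozen, at −7 °C, and extended constructs were gel-excised, bound to streptavidin beads and amplified by RT-PCR, in one selection round done in triplicate. Fitness is the logarithm of a genotype's enrichment divided by that of the wild type, from inverse-variance-weighted replicate averages of Illumina-sequenced inputs and outputs. The base of the logarithm is 2, and genotypes needed ≥10 input reads and ≥1 read per output.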
Regarding A50C A111C, the “polymerase ribozyme fitness (log ratio)” value was 0.0167.

Consider C49U G60U U106A G127U U130G G135U, for which the “polymerase ribozyme fitness (log ratio)” value is -1.71.

Regarding G51C C80G, the “polymerase ribozyme fitness (log ratio)” value was -1.85.

As to A50U A74C A84G U112A, the “polymerase ribozyme fitness (log ratio)” value was -4.89.

In the case of A50G C70U, the “polymerase ribozyme fitness (log ratio)” value is -0.709.

For the variant A50G C70G, the “polymerase ribozyme fitness (log ratio)” value is -4.35.

As for G51A U78C, the “polymerase ribozyme fitness (log ratio)” value is -2.47.

In the case of C49U G51U U78G C79G U109G C124G, the “polymerase ribozyme fitness (log ratio)” value was -6.06.

Turning to C49U G93A G122A, the “polymerase ribozyme fitness (log ratio)” value was -1.37.

A50U G63C C86G U87A: the “polymerase ribozyme fitness (log ratio)” value is -3.52.

With A50U C73U U87A, the “polymerase ribozyme fitness (log ratio)” value was -0.904.

Consider A50C U92A, for which the “polymerase ribozyme fitness (log ratio)” value is -3.05.

Regarding C49U G113C, the “polymerase ribozyme fitness (log ratio)” value is -3.45.

As to A50C G61C G127A, the “polymerase ribozyme fitness (log ratio)” value is -5.03.

As for A50G C53G G60U C72U C101A G117A, the “polymerase ribozyme fitness (log ratio)” value is -4.06.

For A50C G127A, the “polymerase ribozyme fitness (log ratio)” value is -0.787.

On to A50U A118C A121G U129A, for which the “polymerase ribozyme fitness (log ratio)” value was -1.76.

For the variant A50U C124G, the “polymerase ribozyme fitness (log ratio)” value was -0.185.

Take A50U A83U U133A: the “polymerase ribozyme fitness (log ratio)” value is -0.994.

With A50U C53A U54A G93U A105U, the “polymerase ribozyme fitness (log ratio)” value was -3.45.

G51A C86U C94G G120C: the “polymerase ribozyme fitness (log ratio)” value is -6.29.

A50C G69U U125A: the “polymerase ribozyme fitness (log ratio)” value was found to be 0.0264.

In the case of C49U G61U U78G, the “polymerase ribozyme fitness (log ratio)” value is -0.458.

As to A50U C56G, the “polymerase ribozyme fitness (log ratio)” value is -1.76.

C49U G61A C79U C97G: the “polymerase ribozyme fitness (log ratio)” value was -5.31.

As to G51A A100U, the “polymerase ribozyme fitness (log ratio)” value is -4.16.

Take C49U G63A U92G A121G: the “polymerase ribozyme fitness (log ratio)” value is -3.84.

Consider C49U G52A C56G, for which the “polymerase ribozyme fitness (log ratio)” value was -2.31.

Take C49U U106A: the “polymerase ribozyme fitness (log ratio)” value was -0.703.

For A50U G61A U106A, the “polymerase ribozyme fitness (log ratio)” value was -1.03.

Turning to A50U C62U A83U U133A, the “polymerase ribozyme fitness (log ratio)” value was -1.52.

A50G G69A A90C: the “polymerase ribozyme fitness (log ratio)” value is -6.86.

Take A50U G61C C79G U106C C115U C124A: the “polymerase ribozyme fitness (log ratio)” value is -5.24.

On to G51A U130A, for which the “polymerase ribozyme fitness (log ratio)” value was -3.19.

Regarding G51C C70G U109G, the “polymerase ribozyme fitness (log ratio)” value was -7.25.

For G51A C72G, the “polymerase ribozyme fitness (log ratio)” value is -2.71.

With A50G C99U C115U G117C, the “polymerase ribozyme fitness (log ratio)” value is -6.47.

Take A50U U106G: the “polymerase ribozyme fitness (log ratio)” value was -2.78.

As to G51A G77C U116C A118C, the “polymerase ribozyme fitness (log ratio)” value is -5.43.

For A50C G60C U81G C86U G120C, the “polymerase ribozyme fitness (log ratio)” value is -1.06.

A50G C53A C70G: the “polymerase ribozyme fitness (log ratio)” value was -2.47.

In the case of G51A C56G, the “polymerase ribozyme fitness (log ratio)” value was -2.03.

With G51A C56U, the “polymerase ribozyme fitness (log ratio)” value was -0.934.

As for A50G C70U C72G, the “polymerase ribozyme fitness (log ratio)” value was -3.42.

A50U C115G A121C G128U: the “polymerase ribozyme fitness (log ratio)” value is -4.2.

Take C49U U106A U116G: the “polymerase ribozyme fitness (log ratio)” value was -4.54.

C49U G52A G71C: the “polymerase ribozyme fitness (log ratio)” value was -5.43.

Take A50G U55G G110C: the “polymerase ribozyme fitness (log ratio)” value is -4.52.

Consider A50G A84C C114G, for which the “polymerase ribozyme fitness (log ratio)” value was -2.83.

Regarding G51A C99U C124A, the “polymerase ribozyme fitness (log ratio)” value was -5.8.

Turning to A50U G63A, the “polymerase ribozyme fitness (log ratio)” value is -1.47.

For A50U G58A G63U G113C U129G, the “polymerase ribozyme fitness (log ratio)” value is -7.01.

In the case of G51A G60C U92C U130A, the “polymerase ribozyme fitness (log ratio)” value is -6.22.

Consider A50G G128C, for which the “polymerase ribozyme fitness (log ratio)” value was -1.8.

With A50U G52U U87G, the “polymerase ribozyme fitness (log ratio)” value was -2.24.

A50G G71C G113U U126A: the “polymerase ribozyme fitness (log ratio)” value was -6.

As to C49U G58C G60U C114U U129A, the “polymerase ribozyme fitness (log ratio)” value is -5.08.

A50U C62G U112G: the “polymerase ribozyme fitness (log ratio)” value was -5.81.

As to C49U G71A G117C, the “polymerase ribozyme fitness (log ratio)” value was -6.24.

For the variant A50U C86U, the “polymerase ribozyme fitness (log ratio)” value was -1.27.

With A50U G51A C73U, the “polymerase ribozyme fitness (log ratio)” value was -3.5.

On to G51A C53A G61A C73U, for which the “polymerase ribozyme fitness (log ratio)” value is -2.68.

As for C49U C124A, the “polymerase ribozyme fitness (log ratio)” value worked out at 1.2.

With A50G C72G, the “polymerase ribozyme fitness (log ratio)” value is -0.204.

With A50U C115A U133C, the “polymerase ribozyme fitness (log ratio)” value amounted to 0.332.

As to A50U G69A C101A U130G, the “polymerase ribozyme fitness (log ratio)” value is -6.9.

G51A G61A U125A: the “polymerase ribozyme fitness (log ratio)” value is -2.21.

Consider C49U G63A C80U G120A, for which the “polymerase ribozyme fitness (log ratio)” value is -5.11.

A50U C101U A105U A121U U130C: the “polymerase ribozyme fitness (log ratio)” value is -2.62.

For the variant G51A C89G, the “polymerase ribozyme fitness (log ratio)” value is -4.83.

As to G51A C62A A75C U131A, the “polymerase ribozyme fitness (log ratio)” value is -5.36.

Regarding A50C G52U, the “polymerase ribozyme fitness (log ratio)” value was -2.09.

A50U U54C U106A G117A: the “polymerase ribozyme fitness (log ratio)” value was -1.12.

With A50C C56G A105U G120C, the “polymerase ribozyme fitness (log ratio)” value was -2.11.

Regarding C49U G127A, the “polymerase ribozyme fitness (log ratio)” value is -1.64.

With A50U U92G, the “polymerase ribozyme fitness (log ratio)” value was -3.4.

For A50U U92A, the “polymerase ribozyme fitness (log ratio)” value was -5.22.

For G51A G71A G93A U129C, the “polymerase ribozyme fitness (log ratio)” value is -5.9.

Turning to A50G C56A, the “polymerase ribozyme fitness (log ratio)” value is -0.266.

Turning to A50U C64A A100C A111G, the “polymerase ribozyme fitness (log ratio)” value is -6.26.

Consider A50U G60A C123G, for which the “polymerase ribozyme fitness (log ratio)” value is 1.09.

Turning to A50U C85G C89A G120U, the “polymerase ribozyme fitness (log ratio)” value is -3.42.

On to A50G G77A, for which the “polymerase ribozyme fitness (log ratio)” value is -0.057.

On to A50G G60C C94U, for which the “polymerase ribozyme fitness (log ratio)” value was -4.35.
